Starred links: 1 amine or outer side, 2 acyl side, 3 side chain; linkers in the order of their positions; H or OH if unused. Positions of bridges follow the written chain, without caps; N, C: chain ends. Non-standard residues stand in square brackets, D forms with d. Primed or numbered codes have the meaning given here. *: point of attachment. PyrS2″ = (S)-3-amino-1-((pent-4-en-1-yloxy)carbonyl)pyrrolidine-3-carboxylic acid (stapling residue), C=CCCCOC(=O)N1CC[C@@](N[*:1])(C(=O)[*:2])C1; B5(4) = 2,2-bis(4-pentenyl)glycine = 2-amino-2-(pent-4-en-1-yl)hept-6-enoic acid (stitching residue), C=CCCCC(CCCC=C)(N[*:1])C(=O)[*:2]; B5(5) = 2,2-bis(4-pentenyl)glycine, 2-amino-2-(pent-4-en-1-yl)hept-6-enoic acid (stitching residue), C=CCCCC(CCCC=C)(N[*:1])C(=O)[*:2]; TfeGA = (S)-2-amino-3-((carboxymethyl)(2,2,2-trifluoroethyl)amino)propanoic acid, O=C([C@H](CN(CC(=O)[*:3])CC(F)(F)F)N[*:1])[*:2]; PyrS2 = (S)-3-amino-1-((pent-4-en-1-yloxy)carbonyl)pyrrolidine-3-carboxylic acid, C=CCCCOC(=O)N1CC[C@@](N[*:1])(C(=O)[*:2])C1; RdN = (R)-4-(((allyloxy)carbonyl)(methyl)amino)-2-amino-2-methylbutanoic acid, C=CCOC(=O)N(C)CC[C@@](C)(N[*:1])C(=O)[*:2]; PyrS = (S)-1-((allyloxy)carbonyl)-3-aminopyrrolidine-3-carboxylic acid, C=CCOC(=O)N1CC[C@@](N[*:1])(C(=O)[*:2])C1; B5(3) = 2,2-bis(4-pentenyl)glycine (stitching residue), C=CCCCC(CCCC=C)(N[*:1])C(=O)[*:2]; S7 = C[C@@](CCCCCC=[*:3])(N[*:1])C(=O)[*:2]; Phe(4-F) = N[C@@H](Cc1ccc(F)cc1)C(=O)O; Bta = N[C@@H](Cc1csc2ccccc12)C(=O)O; αAllylPro = C=CC[C@@]1(C(=O)O)CCCN1; tBuAla = CC(C)(C)C[C@H](N)C(=O)O; R8 = C=CCCCCCC[C@@](C)(N)C(=O)O; 3Thi = N[C@@H](Cc1ccsc1)C(=O)O; S8 = C=CCCCCCC[C@](C)(N)C(=O)O; Ms = CS(=O)(=O)*
Experiments:
[1] = target: T1, full-length beta-Catenin (Uniprot ID P35222) (Homo sapiens (Human), UniProt P35222 2-781); test: fluorescence polarization competition; peptide titrated against 10 nM full-length beta-catenin with 10 nM 5FAM-TCF4(10-53) probe
T1 construct: also called bCat; B-Catenin
T1 sequence: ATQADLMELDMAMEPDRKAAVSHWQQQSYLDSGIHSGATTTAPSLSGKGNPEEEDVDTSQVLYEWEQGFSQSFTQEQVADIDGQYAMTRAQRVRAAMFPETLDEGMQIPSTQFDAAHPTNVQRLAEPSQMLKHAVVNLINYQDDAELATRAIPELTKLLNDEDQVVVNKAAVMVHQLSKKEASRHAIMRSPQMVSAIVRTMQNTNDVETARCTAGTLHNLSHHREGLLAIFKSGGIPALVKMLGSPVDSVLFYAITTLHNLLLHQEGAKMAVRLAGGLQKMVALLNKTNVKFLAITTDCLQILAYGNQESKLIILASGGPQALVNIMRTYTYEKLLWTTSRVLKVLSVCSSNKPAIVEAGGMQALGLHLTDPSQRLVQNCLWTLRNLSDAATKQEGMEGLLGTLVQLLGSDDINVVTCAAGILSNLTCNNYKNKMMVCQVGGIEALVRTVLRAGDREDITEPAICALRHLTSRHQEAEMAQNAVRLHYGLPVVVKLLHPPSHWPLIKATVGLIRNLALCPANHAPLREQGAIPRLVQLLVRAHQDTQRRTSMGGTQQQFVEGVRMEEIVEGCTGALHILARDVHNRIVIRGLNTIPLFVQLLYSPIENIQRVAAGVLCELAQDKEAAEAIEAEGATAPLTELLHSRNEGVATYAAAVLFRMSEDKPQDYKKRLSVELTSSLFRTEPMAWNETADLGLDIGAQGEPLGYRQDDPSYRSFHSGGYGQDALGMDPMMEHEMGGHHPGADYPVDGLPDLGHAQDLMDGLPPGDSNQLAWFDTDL
Procedure: (§1) The plate was incubated protected from light for 60 minutes at 20° C. prior to read. Reads were performed on a CLARIOstar plate reader (BMG Labtech) in duplicate, and data were fitted to a 1:1 binding model with hill slope using an in-house script. All provided concentrations are final concentrations.

[2] = target: T2, full-length beta-Catenin (Uniprot ID P35222) (Homo sapiens (Human), UniProt P35222 1-781); test: fluorescence polarization competition; peptide titrated against full-length beta-catenin + 5FAM-TCF4(10-53)
T2 construct: also called bCat; B-Catenin
T2 sequence: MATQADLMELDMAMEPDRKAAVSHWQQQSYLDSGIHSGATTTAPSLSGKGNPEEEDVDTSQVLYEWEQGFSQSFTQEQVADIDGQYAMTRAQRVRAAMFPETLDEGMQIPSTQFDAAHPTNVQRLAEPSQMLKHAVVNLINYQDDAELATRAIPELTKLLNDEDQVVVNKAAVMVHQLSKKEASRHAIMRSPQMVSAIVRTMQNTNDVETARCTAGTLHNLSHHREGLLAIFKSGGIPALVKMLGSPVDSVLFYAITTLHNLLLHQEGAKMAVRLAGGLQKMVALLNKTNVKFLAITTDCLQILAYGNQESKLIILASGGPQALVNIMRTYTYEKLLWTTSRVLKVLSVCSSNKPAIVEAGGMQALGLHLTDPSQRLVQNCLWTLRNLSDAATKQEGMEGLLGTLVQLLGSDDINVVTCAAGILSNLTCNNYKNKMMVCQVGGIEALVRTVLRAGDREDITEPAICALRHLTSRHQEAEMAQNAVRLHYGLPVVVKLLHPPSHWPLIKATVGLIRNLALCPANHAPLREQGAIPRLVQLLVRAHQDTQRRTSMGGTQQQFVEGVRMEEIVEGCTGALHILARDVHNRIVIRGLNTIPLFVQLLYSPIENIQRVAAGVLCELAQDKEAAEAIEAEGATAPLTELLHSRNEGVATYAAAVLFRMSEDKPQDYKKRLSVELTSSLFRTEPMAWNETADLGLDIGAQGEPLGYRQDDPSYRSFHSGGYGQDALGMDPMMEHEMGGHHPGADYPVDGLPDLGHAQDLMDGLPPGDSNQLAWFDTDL
Procedure: as §1

B-cat-Halo = target: T3, B-cat-Halo (UniProt P35222 1-781); test: cell-based or functional assay
T3 sequence (looked up): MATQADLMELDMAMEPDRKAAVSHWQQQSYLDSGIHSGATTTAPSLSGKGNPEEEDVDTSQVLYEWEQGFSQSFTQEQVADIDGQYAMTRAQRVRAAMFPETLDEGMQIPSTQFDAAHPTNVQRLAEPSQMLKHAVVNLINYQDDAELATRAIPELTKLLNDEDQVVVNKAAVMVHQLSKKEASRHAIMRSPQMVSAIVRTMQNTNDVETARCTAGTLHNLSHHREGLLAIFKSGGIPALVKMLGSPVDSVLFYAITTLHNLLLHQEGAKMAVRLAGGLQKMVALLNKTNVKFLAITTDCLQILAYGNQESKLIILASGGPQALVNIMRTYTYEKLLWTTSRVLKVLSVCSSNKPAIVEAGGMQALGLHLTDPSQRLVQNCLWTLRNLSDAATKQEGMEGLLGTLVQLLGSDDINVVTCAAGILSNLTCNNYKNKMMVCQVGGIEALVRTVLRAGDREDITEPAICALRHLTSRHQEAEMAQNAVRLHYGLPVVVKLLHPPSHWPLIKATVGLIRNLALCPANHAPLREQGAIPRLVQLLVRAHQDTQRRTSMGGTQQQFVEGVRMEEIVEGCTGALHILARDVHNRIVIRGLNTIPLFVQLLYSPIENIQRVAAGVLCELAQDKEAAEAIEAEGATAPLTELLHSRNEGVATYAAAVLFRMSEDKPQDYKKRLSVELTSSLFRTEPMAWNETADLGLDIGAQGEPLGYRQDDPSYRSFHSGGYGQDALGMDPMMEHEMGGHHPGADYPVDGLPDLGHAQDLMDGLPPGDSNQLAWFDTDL

[3] = target: T4, beta-catenin in DLD1 TCF/LEF luciferase reporter cells (UniProt P35222 2-781); test: cell-based or functional assay
T4 sequence (looked up): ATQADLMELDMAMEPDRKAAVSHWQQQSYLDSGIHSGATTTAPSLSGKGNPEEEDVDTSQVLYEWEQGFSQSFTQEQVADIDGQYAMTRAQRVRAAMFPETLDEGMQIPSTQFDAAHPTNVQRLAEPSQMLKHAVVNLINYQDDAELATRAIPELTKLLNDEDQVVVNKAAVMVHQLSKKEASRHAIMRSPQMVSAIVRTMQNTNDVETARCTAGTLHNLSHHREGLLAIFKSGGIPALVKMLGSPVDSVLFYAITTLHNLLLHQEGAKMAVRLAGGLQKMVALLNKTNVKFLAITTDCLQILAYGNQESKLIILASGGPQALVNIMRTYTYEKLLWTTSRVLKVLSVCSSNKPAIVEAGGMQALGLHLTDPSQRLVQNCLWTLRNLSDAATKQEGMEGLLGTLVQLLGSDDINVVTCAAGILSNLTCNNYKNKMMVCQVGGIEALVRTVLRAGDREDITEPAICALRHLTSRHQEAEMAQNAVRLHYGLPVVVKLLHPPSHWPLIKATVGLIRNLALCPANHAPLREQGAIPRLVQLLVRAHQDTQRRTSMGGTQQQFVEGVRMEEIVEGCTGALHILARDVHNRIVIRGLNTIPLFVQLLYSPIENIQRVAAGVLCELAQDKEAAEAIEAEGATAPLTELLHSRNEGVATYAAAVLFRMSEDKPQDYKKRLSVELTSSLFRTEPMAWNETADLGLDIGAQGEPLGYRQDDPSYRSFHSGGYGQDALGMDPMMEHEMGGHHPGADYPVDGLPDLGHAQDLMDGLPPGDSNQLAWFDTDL

[4] = target: T5, Bcat-Halo (beta-catenin HaloTag construct transfected into HEK293 cells) (UniProt P35222 1-781); test: cell-based or functional assay
T5 sequence (looked up): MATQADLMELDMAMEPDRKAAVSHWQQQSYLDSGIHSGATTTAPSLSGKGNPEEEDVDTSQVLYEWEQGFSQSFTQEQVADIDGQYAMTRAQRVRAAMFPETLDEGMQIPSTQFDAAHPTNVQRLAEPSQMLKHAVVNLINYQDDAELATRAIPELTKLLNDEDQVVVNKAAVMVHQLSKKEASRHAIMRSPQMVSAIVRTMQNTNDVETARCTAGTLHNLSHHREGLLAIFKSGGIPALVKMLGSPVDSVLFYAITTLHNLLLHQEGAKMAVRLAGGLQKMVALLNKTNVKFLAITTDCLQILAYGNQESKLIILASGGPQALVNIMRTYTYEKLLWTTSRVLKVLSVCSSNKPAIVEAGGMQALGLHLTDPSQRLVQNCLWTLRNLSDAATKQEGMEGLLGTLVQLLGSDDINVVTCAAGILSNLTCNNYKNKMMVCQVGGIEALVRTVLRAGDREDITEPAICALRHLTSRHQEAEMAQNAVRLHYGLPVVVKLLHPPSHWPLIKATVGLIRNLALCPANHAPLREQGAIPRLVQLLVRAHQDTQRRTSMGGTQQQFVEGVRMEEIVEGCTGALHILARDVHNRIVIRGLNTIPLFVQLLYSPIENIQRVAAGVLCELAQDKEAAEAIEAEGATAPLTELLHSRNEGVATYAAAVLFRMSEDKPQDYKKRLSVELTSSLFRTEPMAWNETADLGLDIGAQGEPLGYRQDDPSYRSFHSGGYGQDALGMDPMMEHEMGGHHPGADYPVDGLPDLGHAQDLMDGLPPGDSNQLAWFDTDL

[5] = target: T6, beta-catenin in DLD1 TCF/LEF luciferase reporter cells (UniProt P35222 1-781); test: cell-based or functional assay
T6 sequence (looked up): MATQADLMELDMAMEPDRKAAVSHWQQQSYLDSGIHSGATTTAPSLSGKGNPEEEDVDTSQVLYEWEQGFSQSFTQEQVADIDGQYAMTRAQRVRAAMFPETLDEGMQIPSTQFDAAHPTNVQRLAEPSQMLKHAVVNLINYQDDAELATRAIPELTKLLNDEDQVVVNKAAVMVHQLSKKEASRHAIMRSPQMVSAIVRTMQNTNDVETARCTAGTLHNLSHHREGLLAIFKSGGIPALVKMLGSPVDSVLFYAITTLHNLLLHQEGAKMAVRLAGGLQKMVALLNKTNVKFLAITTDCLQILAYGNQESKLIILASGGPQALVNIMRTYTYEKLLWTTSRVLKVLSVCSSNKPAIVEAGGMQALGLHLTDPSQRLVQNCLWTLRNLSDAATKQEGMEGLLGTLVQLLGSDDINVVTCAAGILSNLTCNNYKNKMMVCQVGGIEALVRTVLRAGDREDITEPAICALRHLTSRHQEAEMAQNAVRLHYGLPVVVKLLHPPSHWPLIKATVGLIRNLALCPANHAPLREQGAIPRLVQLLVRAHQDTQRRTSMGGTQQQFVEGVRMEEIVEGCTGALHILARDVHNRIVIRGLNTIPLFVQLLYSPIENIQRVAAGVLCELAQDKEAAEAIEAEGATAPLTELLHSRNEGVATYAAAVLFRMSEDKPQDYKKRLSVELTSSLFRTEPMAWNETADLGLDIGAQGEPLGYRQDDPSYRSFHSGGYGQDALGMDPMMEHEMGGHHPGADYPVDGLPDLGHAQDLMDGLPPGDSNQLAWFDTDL

Binder	IC50 [1]	NanoBRET Abs IC50 (B-cat-Halo)	DLD1 4% Abs IC50 [3]	also measured
Ac-ADI[RdN]DEAAFQ[S7]FWH-NH2 (staple 4-11) [I-66: Ac-Ala-Asp-Ile-RdN-Asp-Glu-Ala-Ala-Phe-Gln-S7-Phe-Trp-His-NH2 (stapled peptide)]	1.09 µM			
Ms-[αAllylPro]DI[B5(5)]DEAAFQ[S8]F[Bta]Q-NH2 (staple 1-4, 4-11, separate staple-isomer composition (later eluting HPLC peak); also called MeSO2-PL3-Asp-Ile-B5-Asp-Glu-Ala-Ala-Phe-Gln-S8-Phe-BztA-Gln-NH2) [I-711]				IC50 [2]: 0.088 µM
Ac-FDA[R8]DDAA[Phe(4-F)]V[PyrS]FWQ-NH2 (staple 4-11) [I-78: Ac-Phe-Asp-Ala-R8-Asp-Asp-Ala-Ala-4FF-Val-PyrS-Phe-Trp-Gln-NH2 (stapled peptide)]	5 µM			
Ac-[αAllylPro]D[tBuAla][B5(3)]D[(Tfb)GA]AAFL[PyrS2″][3Thi][Bta]Q-NH2 (staple 1-4, 4-11) [I-1629]		4.3 µM	2.7 µM	
Ac-[αAllylPro]D[tBuAla][B5(4)]D[TfeGA]AAFL[PyrS2][3Thi][Bta]Q-NH2 (staple 1-4, 4-11) [I-1461]				NanoBRET Abs IC50 [4]: 3.7 µM; DLD1 4% Abs IC50 [5]: 1.7 µM
Ac-[αAllylPro]D[tBuAla][B5(3)]D[(Pfbn)GA]AAFL[PyrS2″][3Thi][Bta]Q-NH2 (staple 1-4, 4-11) [I-1632]		6.5 µM	2.6 µM	

From patent US20240116985A1 (published 2024)
